Measured values taken from the DeepSol protein solubility set.

test: soluble on expression in E. coli; label from the status in PepcDB or PDB records

Row | Sequence | soluble on expression in E. coli
1 | MIDTTVFQNKTAVYYTLGCKLNFSETSTIGKILREAGVRTARKGEKADICVVNTCSVTEMADKKCRQAIHRLVKQHPGAFVVVTGCYAQLKPGDVAKIKGVDVVLGAEQKGDLLQYLGDLHKHEEGEAFTTTTKDIRSFSPSCSRGDRTRFFLKVQDGCDYFCSYCTIPFARGRSRNGTVASMVEQARQAAAEGGKEIVLTGVNIGDFGKTTGETFFDLVKALDQVEGIERYRISSIEPNLLTDEIIEFVSRSRRFMPHFHIPLQSGCDEVLKLMRRRYDTALFASKVKKIKEVMPDAFIGVDVIVGTRGETEEYFEQAYQFISGLDVTQLHVFSYSERPGTQALKIDYVVSPEEKHQRSQRLLTLSDEKTRAFYTRHIGQTMQVLMEKSKAGTPMHGFTANYIRVEVENDESLDNQMINVRLGEFNEDMTALKGTILMNYEV | not soluble
2 | MIDTVSVVLFSKKSHIKIARSVLRDFLQMHESSDSLIVDMEIVLGEILANVIKHTYKNDETKRIIVSYTLKDEVFHMLVRDFGPPVDPTRLKPMPPDLENPREGGYGFYIISRVTDEFRVRPLRNGNLTVVKKKLR | soluble
3 | MIDVKSIILIVLDGLGDRPGEILGYRTPLQAAYHPNMNRMASLGMTGLMHPISPGIRSGSDTSHMSLLGYDPRVYYQGRGPFEALGLHMDMKPGDLAFRANFATNRDGKIIDRRAGRINAGNDQLASAISIDIGNYKFRVKSGVEHRAALVVSGPNLSDKISDSDPHSEGKPPEPIRPLDPSADSTAKIMNEYLKRIREILRDHPVNVEREKNGQIPGNELLIRSAGKVPDIPSFQEKNGITGACVVGSPWLKGLCRLLGMAVIDVPGAAGTINSNYTGKIKTAIDASKRYDFVLVNIKATDVAGHDGDYELKRRVIEDIDIAMEPLLGQSDRIVVAITGDHSTPCSVKDHSGDPVPIVFYTDGIYSDDVKLFDEVSAMKGALRITTQDVLNILMEMAGRAEKFGS | not soluble
4 | MIEFRQVSKTFNKKKQKIDALKDVSFTVNRNDIFGVIGYSGAGKSTLVRLVNHLEAASNGQVIVDGHDITNYSDKMMRDIKKDIGMIFQHFNLLNSATVFKNVAMPLILSKKSKTEIKQRVTEMLEFVGLSDKKDQFPDELSGGQKQRVAIARALVTNPKILLCDEATSALDPATTASILTLLKNVNQTFGITIMMITHEMRVIKDICNRVAVMEKGKVVETGTVKEVFSHPKTTIAQNFVSTVIQTEPSTSLIRRLNDEQVGDFKDYKIFVEETQVTQPIINDLIQICGREVKILFSSMSEIQGNTVCYMWLRFNMDQQFEDTAINQYFKEKNIQFEEVH | not soluble
5 | MIEFSHVSKLFGAQKAVNDLNLNFQEGSFSVLIGTSGSGKSTTLKMINRLVEHDSGEIRFAGEEIRSLPVLELRRRMGYAIQSIGLFPHWSVAQNIATVPQLQKWSRARIDDRIDELMALLGLESNLRERYPHQLSGGQQQRVGVARALAADPQVLLMDEPFGALDPVTRGALQQEMTRIHRLLGRTIVLVTHDIDEALRLAEHLVLMDHGEVVQQGNPLTMLTRPANDFVRQFFGRSELGVRLLSLRSVADYVRREERADGEALAEEMTLRDALSLFVARGCEVLPVVNMQGQPCGTLHFQDLLVEA | soluble
6 | MIEIESRELADIPVLHAYPVGQKDTPLPCVIFYHGFTSSSLVYSYFAVALAQAGLRVIMPDAPDHGSRFSGDEARRLNQFWQILLQSMQEFTTLRAAIAEENWLLDDRLAVGGASMGAMTALGITARHPTVKCTASMMGSGYFTSLARSLFPPLIPETAAQQNEFNKIVAPLAEWEATNHLEQLGDRPLLLWHGLDDDVVPADESLRLQQALSETGRDKLLTCSWQPGVRHRITPEALDAAVTFFRQHL | not soluble
7 | MIEKKKNRSKLKREAILAAAKKAYQDDGVQNTSMDKLASLAQVSKRTVYNHFSSKEALVMELLSDLWQNSMADIDIQFSENVSIQDQLERLLLAELNVIGAQSYLDLAKVAFGHFFYKPDELQLQVEKMAEQETALSRWLQLMMDTKKLTIEDKHKAGVQLHSLLKGSAFWPQLVGMRAVLSSEEKEQLVTETADMFLSRYLKR | not soluble
8 | MIEKVLVVVIIGVVGAYAQGSCRTDQHEMTCRGKNSLHDLKKDQDYLEVDTLNVHQAKLDLTDDLVPDGINLSHLTLLNATDNQITRIGRRGFDKIRNMQFLYLSINQISHSQPDPFQALEKLKRLEMNDALDGNMEEKSDMLRNFFHSKNSFVHLAQIELNKNKIEGIYPKTFCGIQGLQRLELSNNRIPSFDFARTCLKELKALMLAGNLIQKIPADIWDFLPSLSSLDISNNPIDCDCATIRLLSGDDVVFLNQADTKCASPPELEGKRIFELSRDYCKTTRNPRGKASFFQFLVLFVIAVGSEFLF | not soluble
9 | MIELKHVTFGYNKKQMVLQDINITIPDGENVGILGESGCGKSTLASLVLGLFKPVKGEIYLSDNAVLPIFQHPLTSFNPDWTIETSLKEALYYYRGLTDNTAQDQLLLQHLSTFELNAQLLTKLPSEVSGGQLQRFNVMRSLLAQPRVLICDEITSNLDVIAEQNVINILKAQTITNLNHFIVISHDLSVLQRLVNRIIVLKDGMIVDDFAIEELFNVDRHPYTKELVQAFSY | not soluble
10 | MIELPVVPSASDRKSKPDWLRVKLPIGKEYTKLRALVDEHKLHTICQSGNCPNMGECWGAGTATFMILGNVCTRSCSFCAVATGRPTEYDIDEPKRVAEAVRLMNVKHCVITSVNRDELKDKGAEVWYQTVVRVKEESPQTTIETLIPDVKSDWASLERMISGGQEVVSHNMETVERLYRRVRPQAKYSRSLEEIQRIKAFGKRTKSGIMLGLGETKDEVLKAMDDLVAHGLDVLTLGQYLQPTKMHLEVAEFIHPDQFAEYKEIGLSKGLNYVESGPLVRSSYHAEKHI | not soluble
11 | MIEPVLENVQPNSAASKAGLQAGDRIVKVDGQPLTQWVTFVMLVRDNPGKSLALEIERQGSPLSLTLIPESKPGNGKAIGFVGIEPKGKASPV | soluble
12 | MIEYSSFVLDNGLKVFVHEDRTTSMAALNILYDVGSKDEVVTKTGFAHLFEHLMFGGSKHIPSYDEALQKAGGENNAFTSPDITNYYITIPANNIETAFWLESDRMMALSFDPKVLEVQRSVVIEEFKQRYLNQPYGDVWLKLRPLAYKEHSYKWATIGKEISHIEEATMDDVRDFFYSYYLPNNAYMVVAGNVTLEQVKKLSEKWFAPIPSGTRRKRNIP | not soluble
13 | MIFKKEPKRYTVEDTIPYLRLLKSGICQLDEKHFSKSIAFQDINYQLALDEDRDLIFNQFANFLNSFDPSISIEFSYVNQLGRNEEMKSAIQIPDKKDGFDDIRFEFREMLKSQIVKGNNGLKKSKYVTFTVEADNLEQATSKLERLEIDILSNLKSMGVRAESLNGEERLKILHDVLNPNKTFEFSYKDLKKRESTKTYIVPDEFNFTPSRYFKFGKFIGATSHFQILASELSDRMLSEFLDIDDNINISFHIRAIDQSEAIKMVKRKNTDIDKMKIEENKKAVRSGYDMDILPSDLITYGEDVKSLLKDLQTRDERMFVVSIVFMNFARTVQKLDNTIAQISSIANKHNCKLKRLDHSQEQGLVSMLPLGVNKIEIDRGLTSSSTAVFMPFTTEELFINSSNSLYYGLNALSHNLIMADRKKLKNPNGLILGTPGSGKSFSAKREMANAILVTDDDVIICDPEGEYGNLVRQFKGEVIKVSSKSKDYLNPLDINMNYGDGDAPLKDKANFIMSMLELVVGGSGLTAEEKSVIDRCLPKIYEKYFEHPTPDNMPILQDLYDMLKGQEEKVGKKLATEMEIYVSGSLNVFNHRSNVDLNKKLLCFDIKELGSQLKKIGMLVIQDQVWNKVSQNRGNKATRYYIDEFHLLLKDEQTASYSVEIWKRFRKWGGIPTGITQNVKDLLMSKEIENIFDNTDFVLMLNQASGDREILARKLKISLPQLRYVTNSNEGEGLLFFGNTIVPFLDKFPKDTILYQKMTTKPEEVRLEHHHHHH | soluble
14 | MIGCLPMMRSLERHAVILGLLRQQEHVTIEAMAAACDASLQTIRRDLNQLGEDGRVVRYHGGARLADHARSATYEVRSASHVREKVAAGQLLARFIPDGATLFIAGGSTLALAAQELRACEGLTIVTNNLHAAVTLYDKTGFDVCVLGGTMRPASGSMIGEEAVRMIERYSLDFAVIGTCGISPDGALLEYDQSLVPPLLAMISNARRTVLVADGSKFGAKGIVRAAPLSAVNHFVTDRAPEGRAADLLARTGVKVHHPANPNLSSQDAAADGRELEHHHHHH | not soluble
15 | MIGDFWKESNGLATANDMDKNLAYMYTMKKKARGQLLFTKEKLAEYGSKVGLFPGVKDWFRRIRQYGADREVIIEHYIISSGLKEMIEGTSIAKDFKEIYATSFYFDDDGVAVWPAQVVNYTNKTQFLFRISKGVLNVNDEAVNDSFAPDEIRVPFHNMIYIGDSDTDIPCMKLVNSHGGYSIGVFNPKERNEEKAKKRVYKMIRDNRIGYF | not soluble
16 | MIGELVKDKILIKNIEDARLIYKMGYYGKPIGISKPKSAEEINSELILSLIEGVYLVKKGKLEIVSNGERLDFERLYQIGVTQIPRFRILYSVYEDLREKGYVVRSGIKYGADFAVYTIGPGIEHAPYLVIALDENSQISSNEILGFGRVSHSTRKELILGIVNLTNGKIRYIMFKWLKM | soluble
17 | MIGFIGSVFSPWYRWSGRKEPQNHCCLNVATYGPGGRFTMTDRGRAALRQSPDTLTVGPSRMHWTGTQLIVEVNEISSPPLVSPVKGRIVLTPTGITDVEVTLKDDGSHIWRPFAPTARIEVDLTQGHRWHGHGYFDANFGTAALEADFRFWTWGRYPVADGAACFYDATRRDGSRLELGLHVAADGRARLIQPPPEARFARSRWLVERHTPADPGTRPRQVMSMLDAPFYSRAMVETTVFGQKTVGVHEALDLRRFRSPLLMPMLAVRVPRRPGWSF | not soluble
18 | MIGYPIVFRCCECTVEEQTMEHLESHIWSRHLQAFPFKCAYCDFPALSAISLMDHFAQNHSDVAIVEFKRNLEDEKRFRKMVADSIAIEIDETSQQDSSTQMTVLQPMMQQGTAQMILLPPEGSQYDEIVDHRGPDEDDFGVLDDDENIEELIDDDDDDDYIDELGNPVFIGAHDDSDYILEDDLSPQGPIRSSNNYHLKYIRTRRMDKLIDNVVVNATQRDSPEQEDCSTSGVAFADGQTNSGKMGRFSCDRCSRTFKYQSKLDEHRRTHLGVKPFQCHYCTRQFSQRGALKTHMRLHTGERPFVCQWECGKQFASSSAKSHHEKTHSGERPYICNVCGKSFTKNSHVIRHLKNIHNRELAQQDAMLRGDDVQSTDESLNIGSARSQMSDIEPRGKEIGVVHDIVEQIHEERKDFMRL | not soluble
19 | MIHCDPFSINCFWENVIKFLQYDHSMFKIAITSVPARVDVSDLDRSLAYFLSDIGYIPKINPSTDMNSIKNSVYFRLFKECFLMNGERFWTPEELMSYLGTSRSTLYRHLNKLKYMDLLEEVKDGKIKKYRIRSGDILKAWSWVEINVKMAMDNYRSNVEHIVDLIRSNSNSNLRPLEHHHHHH | not soluble
20 | MIHETAQIHPTSVVEEGAIIGANVKIGPFCFVDSKVEIGEGTELLSHVVVKGPTKIGRFNRIFQFASIGEACQDLKYAGEDTQLIIGDRNTIRESVTMHRGTVQDKGITIVGSDNLFMINAHVAHDCVIGDRCIFANNATLAGHVKVGNQAIVGGMSAIHQFCHIGDHCMLGGGSIVVQDVPPYVMAQGNHCAPFGINVEGLKRRGFDKAEIHAIRRAYKSLYRNGLTLEAAKAEIAQEAEQYPSVKLFLDFLEKSERGIIR | not soluble
21 | MIIKPRIRGFICTTTHPVGCEANVKEQIAYTKAQGPIKNAPKRVLVVGASSGYGLSSRIAAAFGGGASTIGVFFEKEGTEKKPGTAGFYNAAAFEKLAREEGLYAKSLNGDAFSNEAKQKTIDLIKEDLGQVDMVVYSLASPVRKMPETGELIRSALKPIGETYTSTAVDTNKDVIIEASVEPATEEEIKDTVTVMGGEDWELWINALSDAGVLAEGCKTVAYSYIGTELTWPIYWDGALGKAKMDLDRAAKALNEKLGATGGSANVAVLKSVVTQASSAIPVMPLYIAMVFKKMREEGVHEGCMEQIYRMFSQRLYKEDGSAAEVDDMNRLRLDDWELREDIQQHCRELWPQITTENLKELTDYVEYKEEFLKLFGFGVEGVDYEADVNPAVETDFIQI | soluble
